The target in the assay is squid Munc18-1 (squid). The assay is described as follows: ITC. A general note: In ITC the heat of successive injections is recorded.

Our source for the Kd values is article PMC2834481.

Usually Kd stands for a measure of binding affinity in units of concentration. Lower therefore signals a tighter complex.

For “synaptobrevin(49-96) (from UniProt P63045 49-96) (domain or fragment)”, the Kd came to 13.3 µM. On to “synaptobrevin(77-96) peptide (from UniProt P63045 77-96)”, for which the Kd amounted to 13.5 µM.
